Reference: patent US20090304721A1 (MEDLMMUNE, published 2009)
Each block holds one binder with its values, some of them ahead of it.

Columns and labels:
[1] = target: T1, mouse EphA2 expressed on cells (mouse, UniProt Q03145 26-977); assay: flow cytometry on tumor cell lines, 1 ug antibody, PE anti-human IgG
T1 construct: whole, on cells
Method: (§1) The cells were then washed 2× with cold PBS and stained for 30 minutes at 4° C. with secondary Abs (Phycoerythin conjugated goat-a-human IgG, Biosource). Fluorescence analysis was performed using a FACS Calibur flow cytometer (BD Biosciences).

[2] = target: T2, human EphA2 expressed on cells (human, UniProt P29317 24-976); assay: flow cytometry on twelve human cell lines, 1 ug primary antibody per 2x10^5 cells, PE goat anti-human IgG; y axis Mean Fl. Shift (%)
T2 construct: whole, on cells; Endogenous receptor on human tumor cell lines and HUVEC
T2 sequence (P29317 24-976): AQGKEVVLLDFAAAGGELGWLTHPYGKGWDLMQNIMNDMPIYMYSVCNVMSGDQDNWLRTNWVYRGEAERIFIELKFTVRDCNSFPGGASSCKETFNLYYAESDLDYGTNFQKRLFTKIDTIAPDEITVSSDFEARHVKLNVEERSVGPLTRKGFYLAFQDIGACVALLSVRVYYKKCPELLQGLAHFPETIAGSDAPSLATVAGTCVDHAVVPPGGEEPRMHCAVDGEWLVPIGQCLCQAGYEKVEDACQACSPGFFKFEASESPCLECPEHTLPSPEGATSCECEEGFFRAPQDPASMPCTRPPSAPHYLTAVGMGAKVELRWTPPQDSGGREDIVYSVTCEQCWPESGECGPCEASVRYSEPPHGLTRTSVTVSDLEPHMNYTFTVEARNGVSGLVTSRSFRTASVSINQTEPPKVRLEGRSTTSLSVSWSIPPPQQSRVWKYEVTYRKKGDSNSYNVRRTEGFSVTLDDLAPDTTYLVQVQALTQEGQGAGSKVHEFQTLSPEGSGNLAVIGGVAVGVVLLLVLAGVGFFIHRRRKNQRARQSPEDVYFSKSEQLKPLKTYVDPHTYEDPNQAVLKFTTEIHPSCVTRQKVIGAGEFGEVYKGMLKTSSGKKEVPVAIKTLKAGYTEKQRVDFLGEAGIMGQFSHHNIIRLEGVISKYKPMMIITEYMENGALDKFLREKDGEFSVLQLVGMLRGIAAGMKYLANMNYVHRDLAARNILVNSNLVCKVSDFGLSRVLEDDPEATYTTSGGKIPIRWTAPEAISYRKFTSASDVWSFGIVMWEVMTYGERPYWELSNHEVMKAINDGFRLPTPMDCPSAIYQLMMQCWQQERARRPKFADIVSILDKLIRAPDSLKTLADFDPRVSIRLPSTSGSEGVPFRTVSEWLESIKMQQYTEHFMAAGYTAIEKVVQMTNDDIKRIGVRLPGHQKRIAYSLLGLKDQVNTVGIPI
Method: as §1

[3] = target: T2, human EphA2 expressed on cells; assay: cell-based or functional assay
[4] = target: T2, human EphA2 expressed on cells; assay: immunofluorescence of HUVEC cells labeled with 50 ug/ml antibody at 4 C, 0 or 20 min at 37 C, fixed, permeabilized, AlexaFluor 488 goat anti-human IgG, DAPI mounting medium

T1 sequence (Q03145 26-977): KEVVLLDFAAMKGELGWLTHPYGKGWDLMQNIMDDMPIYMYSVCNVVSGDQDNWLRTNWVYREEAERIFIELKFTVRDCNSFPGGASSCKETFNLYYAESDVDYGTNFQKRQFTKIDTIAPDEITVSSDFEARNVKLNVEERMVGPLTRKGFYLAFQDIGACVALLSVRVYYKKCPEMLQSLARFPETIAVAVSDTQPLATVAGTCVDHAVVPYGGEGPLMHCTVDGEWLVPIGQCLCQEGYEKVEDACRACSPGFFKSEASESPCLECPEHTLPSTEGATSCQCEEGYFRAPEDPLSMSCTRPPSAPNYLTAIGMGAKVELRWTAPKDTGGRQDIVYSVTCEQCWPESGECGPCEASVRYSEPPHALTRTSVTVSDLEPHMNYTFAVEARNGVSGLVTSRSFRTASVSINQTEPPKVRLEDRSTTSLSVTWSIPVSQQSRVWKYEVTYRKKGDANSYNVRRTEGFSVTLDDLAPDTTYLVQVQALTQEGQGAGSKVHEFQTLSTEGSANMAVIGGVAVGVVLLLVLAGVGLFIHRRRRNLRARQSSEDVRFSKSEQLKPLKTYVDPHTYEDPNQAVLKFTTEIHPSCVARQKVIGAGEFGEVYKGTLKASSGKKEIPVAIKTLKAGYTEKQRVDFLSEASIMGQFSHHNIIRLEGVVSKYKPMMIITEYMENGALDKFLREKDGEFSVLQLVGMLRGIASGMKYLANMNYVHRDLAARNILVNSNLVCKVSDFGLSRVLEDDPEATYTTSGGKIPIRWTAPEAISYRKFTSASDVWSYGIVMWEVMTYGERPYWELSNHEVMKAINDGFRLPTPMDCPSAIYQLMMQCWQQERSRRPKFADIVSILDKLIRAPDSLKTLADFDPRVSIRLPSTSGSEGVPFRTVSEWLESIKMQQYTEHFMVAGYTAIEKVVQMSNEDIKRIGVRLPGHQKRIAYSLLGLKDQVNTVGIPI

binding result [1]: binds
binding result [2]: binds
B1: anti-EphA2 antibody 1H3 (antibody, V domains shown)
VH: EVQLLESGGGLVQPGGSLRLSCAASGFTFSMYAMRWVRQAPGKGLEWVSVIGPSGGWTPYADSVKGRFTISRDNSKNTLYLQMNSLRAEDTAVYYCARDRGIYGMDVWGQGTTVTVSS
VL: DIQMTQSPSFLSASVGDRVTITCRASQGISSYLAWYQQKPGKAPKLLIYAASTLQSGVPSRFSGSGSGTEFTLTISSLQPEDFATYYCLELNNYPFTFGLGTKVHIK

IC50 (read off the curve), growth inhibition of MCF10-A cells [3]: ~20 nM
B2: 3F2mcMMAF (antibody, V domains shown)
VH: EVQLVESGGGVVRPGGSLRLSCAASGFTVSDYSMNWVRQAPGKGLEWIGFIRNKANAYTTEYSASVKGRFTISRDDSKNTLYLQMNSLKTEDTAVYYCTTYPRYHAMDSWGQGTMVTVSS
VL: AIQLTQSPSSLSASVGDRVTITCRASQSISNNLHWYLQKPGQSPQLLIYYGFQSISGVPSRFSGSGSGTDFTLTISSLQPEDFATYYCQQANSWPLTFGGGTKLEIK
modifications: antibody conjugated to monomethylauristatin F (MMAF) through a maleimidocaproyl-citrulline (mc) linker; attachment residues not stated

binding result [4]: binds
B3: anti-EphA2 antibody 3F2 (antibody, V domains shown)
VH: EVQLVESGGGVVRPGGSLRLSCAASGFTVSDYSMNWVRQAPGKGLEWIGFIRNKANAYTTEYSASVKGRFTISRDDSKNTLYLQMNSLKTEDTAVYYCTTYPRYHAMDSWGQGTMVTVSS
VL: AIQLTQSPSSLSASVGDRVTITCRASQSISNNLHWYLQKPGQSPQLLIYYGFQSISGVPSRFSGSGSGTDFTLTISSLQPEDFATYYCQQANSWPLTFGGGTKLEIK
notes: Humanized agonistic monoclonal antibody
